Laboratory results: US20210371867A1 (SYSMEX, published 2021)

T1: human CD80/B7-1 protein (His tag) (human, UniProt P33681 35-242)
T1 construct: Recombinant His-tagged protein used as the antigen solution; also called antigen
T1 sequence (looked up): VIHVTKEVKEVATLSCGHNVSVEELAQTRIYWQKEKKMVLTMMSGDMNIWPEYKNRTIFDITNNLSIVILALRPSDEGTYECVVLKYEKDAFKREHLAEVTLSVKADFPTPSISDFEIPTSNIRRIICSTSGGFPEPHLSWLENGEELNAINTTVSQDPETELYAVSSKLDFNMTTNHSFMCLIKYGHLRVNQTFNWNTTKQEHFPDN


Assays:
[1] = molecular target: human IgG antibody (human); test: sandwich chemiluminescence immunoassay (HISCL-800); detection reagent stored at 40° C. for 1 week
[2] = molecular target: human IgG antibody (human); test: sandwich chemiluminescence immunoassay (HISCL-800); PC counts over NC counts, R3 reagent stored at 4° C.
[3] = molecular target: human IgG antibody (human); test: sandwich chemiluminescence immunoassay on magnetic particles (HISCL-800); capture biotin-labeled mouse anti-human IgG semi-IgG; binder as detection antibody, 0.051 U/mL
[4] = molecular target: human IgG antibody (human); test: sandwich chemiluminescence immunoassay on magnetic particles (HISCL-800); capture biotin-labeled mouse anti-human IgG semi-IgG; binder as detection antibody, 0.052 U/mL
[5] = molecular target: human IgG antibody (human); test: sandwich chemiluminescence immunoassay on magnetic particles (HISCL-800); capture biotin-labeled mouse anti-human IgG semi-IgG; binder as detection antibody, 0.055 U/mL
[6] = molecular target: T1, human CD80/B7-1 protein (His tag); test: sandwich chemiluminescence ELISA; capture rabbit anti-CD80 IgG on plate, antigen 0.005-20 ng/mL, binder as detection antibody at 200 ng/mL
Experimental: Rabbit anti-CD80 antibody (IgG) was diluted with PBS to 1 μg/mL. The resulting antibody solution was added to a 96-well black plate at 100 μL/well and allowed to stand overnight at 4° C. to immobilize the antibody in the wells. After removing the antibody solution from the plate, Buffer I′ (100 mM HEPES, 1% BSA, 0.05% ProClin (trademark), 1 mM MgCl₂, 0.1 mM ZnCl₂, pH 8.0) was added at 300 μL/well and allowed to stand overnight at 4° C. for blocking. After removing the solution from the plate, a human CD80/B7-1 protein (His tag) solution (0.005, 0.020, 0.078, 0.313, 1.25, 5.0 or 20 ng/mL) was added as an antigen solution at 100 μL/well. The plate was shaken at room temperature at 500 rpm for 1 hour to perform an antigen-antibody reaction. The plate was washed three times with a HISCL washing solution (Sysmex Corporation), and then each ALP fusion antibody (200 ng/mL) of Example 1 diluted with Buffer I′ was added at 100 μL/well. The plate was shaken at room temperature at 500 rpm for 1 hour to perform an antigen-antibody reaction. After washing the plate with a HISCL washing solution three times, a HISCL R5 reagent (Sysmex Corporation) as a solution of a chemiluminescent substrate of ALP was added at 100 μL/well, and luminescence intensity was immediately measured with FLUOstar OPTIMA (BMG LABTECH).

Binder	Counts (PC, R3 reagent stored at 40° C., 1 week) [1] [counts]	S/N [2]	Counts (PC, R3 reagent stored at 4° C.) [3] [counts]	Counts (PC, R3 reagent stored at 4° C.) [4] [counts]	Counts (PC, R3 reagent stored at 4° C.) [5] [counts]	binding result [6]
ALP fusion antibody of Example 2 (GS1): Fab of mouse anti-human IgG antibody, Fd-GS1-BIAPII (Fab, part only; not given: Fd and light chain of anti-IgG Fab, part only) heavy, part: GGGGSLIPAEEENPAFWNRQAAQALDVAKKLQPIQTAAKNVILFLGDGMGVPTVTATRILKGQMNGKLGPETPLAMDQFPYVALSKTYNVDRQVPDSAGTATAYLCGVKGNYRTIGVSAAARYNQCNTTRGNEVTSVINRAKKAGKAVGVVTTTRVQHASPAGAYAHTVNRNWYSDADLPADAQKNGCQDIAAQLVYNMDIDVILGGGRMYMFPEGTPDPEYPDDASVNGVRKDKQNLVQEWQAKHQGAQYVWNRTALLQAADDSSVTHLMGLFEPADMKYNVQQDHTKDPTLAEMTEAALQVLSRNPRGFYLFVEGGRIDHGHHDGKAYMALTEAIMFDNAIAKANELTSELDTLILVTADHSHVFSFGGYTLRGTSIFGLAPGKALDSKSYTSILYGNGPGYALGGGSRPDVNGSTSEEPSYRQQAAVPLASETHGGEDVAVFARGPQAHLVHGVQEETFVAHIMAFAGCVEPYTDCNLPAPA	320000	737	359000	–	–	–
ALP fusion antibody of Example 2 (GS3): Fab of mouse anti-human IgG antibody, Fd-GS3-BIAPII (Fab, part only; not given: Fd and light chain of anti-IgG Fab, part only) heavy, part: GGGGSGGGGSGGGGSLIPAEEENPAFWNRQAAQALDVAKKLQPIQTAAKNVILFLGDGMGVPTVTATRILKGQMNGKLGPETPLAMDQFPYVALSKTYNVDRQVPDSAGTATAYLCGVKGNYRTIGVSAAARYNQCNTTRGNEVTSVINRAKKAGKAVGVVTTTRVQHASPAGAYAHTVNRNWYSDADLPADAQKNGCQDIAAQLVYNMDIDVILGGGRMYMFPEGTPDPEYPDDASVNGVRKDKQNLVQEWQAKHQGAQYVWNRTALLQAADDSSVTHLMGLFEPADMKYNVQQDHTKDPTLAEMTEAALQVLSRNPRGFYLFVEGGRIDHGHHDGKAYMALTEAIMFDNAIAKANELTSELDTLILVTADHSHVFSFGGYTLRGTSIFGLAPGKALDSKSYTSILYGNGPGYALGGGSRPDVNGSTSEEPSYRQQAAVPLASETHGGEDVAVFARGPQAHLVHGVQEETFVAHIMAFAGCVEPYTDCNLPAPA	331000	737	364000	–	–	–
ALP fusion antibody of Example 2 (EK1): Fab of mouse anti-human IgG antibody, Fd-EK1-BIAPII (Fab, part only; not given: Fd and light chain of anti-IgG Fab, part only) heavy, part: EAAAKLIPAEEENPAFWNRQAAQALDVAKKLQPIQTAAKNVILFLGDGMGVPTVTATRILKGQMNGKLGPETPLAMDQFPYVALSKTYNVDRQVPDSAGTATAYLCGVKGNYRTIGVSAAARYNQCNTTRGNEVTSVINRAKKAGKAVGVVTTTRVQHASPAGAYAHTVNRNWYSDADLPADAQKNGCQDIAAQLVYNMDIDVILGGGRMYMFPEGTPDPEYPDDASVNGVRKDKQNLVQEWQAKHQGAQYVWNRTALLQAADDSSVTHLMGLFEPADMKYNVQQDHTKDPTLAEMTEAALQVLSRNPRGFYLFVEGGRIDHGHHDGKAYMALTEAIMFDNAIAKANELTSELDTLILVTADHSHVFSFGGYTLRGTSIFGLAPGKALDSKSYTSILYGNGPGYALGGGSRPDVNGSTSEEPSYRQQAAVPLASETHGGEDVAVFARGPQAHLVHGVQEETFVAHIMAFAGCVEPYTDCNLPAPA	421000	927	–	463000	–	–
ALP fusion antibody of Example 2 (EK3): Fab of mouse anti-human IgG antibody, Fd-EK3-BIAPII (Fab, part only; not given: Fd and light chain of anti-IgG Fab, part only) heavy, part: EAAAKEAAAKEAAAKLIPAEEENPAFWNRQAAQALDVAKKLQPIQTAAKNVILFLGDGMGVPTVTATRILKGQMNGKLGPETPLAMDQFPYVALSKTYNVDRQVPDSAGTATAYLCGVKGNYRTIGVSAAARYNQCNTTRGNEVTSVINRAKKAGKAVGVVTTTRVQHASPAGAYAHTVNRNWYSDADLPADAQKNGCQDIAAQLVYNMDIDVILGGGRMYMFPEGTPDPEYPDDASVNGVRKDKQNLVQEWQAKHQGAQYVWNRTALLQAADDSSVTHLMGLFEPADMKYNVQQDHTKDPTLAEMTEAALQVLSRNPRGFYLFVEGGRIDHGHHDGKAYMALTEAIMFDNAIAKANELTSELDTLILVTADHSHVFSFGGYTLRGTSIFGLAPGKALDSKSYTSILYGNGPGYALGGGSRPDVNGSTSEEPSYRQQAAVPLASETHGGEDVAVFARGPQAHLVHGVQEETFVAHIMAFAGCVEPYTDCNLPAPA	436000	665	–	–	465000	–
ALP fusion antibody of Example 1 (EK3 linker): Fab of rabbit anti-CD80 antibody, Fd-EK3-BIAPII (Fab, Fab-enzyme fusion, dimer through the ALP subunits) heavy: QSVEESGGRLVTPGTPLTLTCTASGFSLSNNAVSWVRQAPGEGLEWIGTISSNDNTYYATWAKGRFTISKTSTTVDLKITSPTTEDTATYFCAIYYYGYGYVFNLWGPGTLVTVSSGQPKAPSVFPLAPCCGDTPSSTVTLGCLVKGYLPEPVTVTWNSGTLTNGVRTFPSVRQSSGLYSLSSVVSVTSSSQPVTCNVAHPATNTKVDKTVAPSTCSKPTEAAAKEAAAKEAAAKLIPAEEENPAFWNRQAAQALDVAKKLQPIQTAAKNVILFLGDGMGVPTVTATRILKGQMNGKLGPETPLAMDQFPYVALSKTYNVDRQVPDSAGTATAYLCGVKGNYRTIGVSAAARYNQCNTTRGNEVTSVINRAKKAGKAVGVVTTTRVQHASPAGAYAHTVNRNWYSDADLPADAQKNGCQDIAAQLVYNMDIDVILGGGRMYMFPEGTPDPEYPDDASVNGVRKDKQNLVQEWQAKHQGAQYVWNRTALLQAADDSSVTHLMGLFEPADMKYNVQQDHTKDPTLAEMTEAALQVLSRNPRGFYLFVEGGRIDHGHHDGKAYMALTEAIMFDNAIAKANELTSELDTLILVTADHSHVFSFGGYTLRGTSIFGLAPGKALDSKSYTSILYGNGPGYALGGGSRPDVNGSTSEEPSYRQQAAVPLASETHGGEDVAVFARGPQAHLVHGVQEETFVAHIMAFAGCVEPYTDCNLPAPA light: ELVMTQTPASVSEPVGGTVTINCQASEDIYSSLAWYQQKPGQRPKLLMYYASTLASGVPSRFKGSGSGTEFTLTISDLECADAATYYCQSYYLSSSSRYGNAFGGGTEVVVKGDPVAPTVLIFPPAADQVATGTVTIVCVANKYFPDVTVTWEVDGTTQTTGIENSKTPQNSADCTYNLSSTLTLTSTQYNSHKEYTCKVTQGTTSVVQSFIG	–	–	–	–	–	binds
